In publication PMC7641761:

Columns and labels:
[1] = biological target: Ku70/Ku80 heterodimer FL (baculovirus);PAXX (human;human?, UniProt P12956;P13010;Q9BUH6 1-609;1-718;1-204, |); test: EMSA; supershift; MST: 50 mM Tris pH 8.0, 50 mM NaCl, 1 mM DTT, 24 C, 40 nM FAM-RNA; EMSA: 25 mM Hepes-KOH pH 7.5, 50 mM NaCl, 1 mM DTT, 1 mM EDTA, 10% glycerol, 0.1 uM BSA, room temperature, 25 min; details: protein: recombinant;recombinant; tags: His (Ku80);GST cleaved; copies: 1;1;2; label: 3'-FAM on lower strand; blunt
[2] = biological target: T1, Ku70/Ku80 heterodimer FL (baculovirus);XLF (human;human?, UniProt P12956;P13010;Q9H9Q4 1-609;1-718;1-299, |); test: EMSA; supershift; Ku preparation not stated; MST: 50 mM Tris pH 8.0, 50 mM NaCl, 1 mM DTT, 24 C, 40 nM FAM-RNA; EMSA: 25 mM Hepes-KOH pH 7.5, 50 mM NaCl, 1 mM DTT, 1 mM EDTA, 10% glycerol, 0.1 uM BSA, room temperature, 25 min; details: protein: recombinant;recombinant; tags: His (Ku80);; copies: 1;1;2; label: 3'-FAM on lower strand; blunt
[3] = biological target: T2, Ku70/Ku80 heterodimer FL (baculovirus) (human, UniProt P12956;P13010 1-609;1-718); test: MST; Hill 1.0; MST: 50 mM Tris pH 8.0, 50 mM NaCl, 1 mM DTT, 24 C, 40 nM FAM-RNA; EMSA: 25 mM Hepes-KOH pH 7.5, 50 mM NaCl, 1 mM DTT, 1 mM EDTA, 10% glycerol, 0.1 uM BSA, room temperature, 25 min; details: protein: recombinant; tags: His (Ku80); copies: 1;1; label: 5'-FAM stated for MST RNAs
Ku dCTR = Ku dCTR (human, UniProt P12956;P13010 1-609;1-569); test: MST; MST: 50 mM Tris pH 8.0, 50 mM NaCl, 1 mM DTT, 24 C, 40 nM FAM-RNA; EMSA: 25 mM Hepes-KOH pH 7.5, 50 mM NaCl, 1 mM DTT, 1 mM EDTA, 10% glycerol, 0.1 uM BSA, room temperature, 25 min; details: protein: recombinant; copies: 1;1; label: 5'-FAM; hairpin with bulge
[4] = biological target: T2, Ku70/Ku80 heterodimer FL (baculovirus); test: as above; details: protein: recombinant, tags: His (Ku80), copies: 1;1, label: 5'-FAM
[5] = biological target: T1, Ku70/Ku80 heterodimer FL …; test: EMSA; supershift; MST: 50 mM Tris pH 8.0, 50 mM NaCl, 1 mM DTT, 24 C, 40 nM FAM-RNA; EMSA: 25 mM Hepes-KOH pH 7.5, 50 mM NaCl, 1 mM DTT, 1 mM EDTA, 10% glycerol, 0.1 uM BSA, room temperature, 25 min; details: protein: recombinant;recombinant, tags: His (Ku80);, copies: 1;1;2, label: 5'-FAM
[6] = biological target: T2, Ku70/Ku80 heterodimer FL (baculovirus); test: MST; Hill 1.75; MST: 50 mM Tris pH 8.0, 50 mM NaCl, 1 mM DTT, 24 C, 40 nM FAM-RNA; EMSA: 25 mM Hepes-KOH pH 7.5, 50 mM NaCl, 1 mM DTT, 1 mM EDTA, 10% glycerol, 0.1 uM BSA, room temperature, 25 min; details: protein: recombinant; tags: His (Ku80); copies: 1;1; label: 5'-FAM; blunt
Ku5D = Ku5D (human, UniProt P12956;P13010 1-609;1-718, T305D;S306D;T307D;S314D;T316D); test: MST; 20-fold weaker than WT; MST: 50 mM Tris pH 8.0, 50 mM NaCl, 1 mM DTT, 24 C, 40 nM FAM-RNA; EMSA: 25 mM Hepes-KOH pH 7.5, 50 mM NaCl, 1 mM DTT, 1 mM EDTA, 10% glycerol, 0.1 uM BSA, room temperature, 25 min; details: protein: recombinant; copies: 1;1; label: 5'-FAM on strand 1; fork; 42-mer/29-mer
[7] = biological target: T2, Ku70/Ku80 heterodimer FL (baculovirus); test: EMSA; Ku preparation not stated; MST: 50 mM Tris pH 8.0, 50 mM NaCl, 1 mM DTT, 24 C, 40 nM FAM-RNA; EMSA: 25 mM Hepes-KOH pH 7.5, 50 mM NaCl, 1 mM DTT, 1 mM EDTA, 10% glycerol, 0.1 uM BSA, room temperature, 25 min; details: protein: recombinant; tags: His (Ku80); copies: 1;1; label: 5'-FAM; G4

T1 sequence (P12956 whole entry, chain 1 of 3): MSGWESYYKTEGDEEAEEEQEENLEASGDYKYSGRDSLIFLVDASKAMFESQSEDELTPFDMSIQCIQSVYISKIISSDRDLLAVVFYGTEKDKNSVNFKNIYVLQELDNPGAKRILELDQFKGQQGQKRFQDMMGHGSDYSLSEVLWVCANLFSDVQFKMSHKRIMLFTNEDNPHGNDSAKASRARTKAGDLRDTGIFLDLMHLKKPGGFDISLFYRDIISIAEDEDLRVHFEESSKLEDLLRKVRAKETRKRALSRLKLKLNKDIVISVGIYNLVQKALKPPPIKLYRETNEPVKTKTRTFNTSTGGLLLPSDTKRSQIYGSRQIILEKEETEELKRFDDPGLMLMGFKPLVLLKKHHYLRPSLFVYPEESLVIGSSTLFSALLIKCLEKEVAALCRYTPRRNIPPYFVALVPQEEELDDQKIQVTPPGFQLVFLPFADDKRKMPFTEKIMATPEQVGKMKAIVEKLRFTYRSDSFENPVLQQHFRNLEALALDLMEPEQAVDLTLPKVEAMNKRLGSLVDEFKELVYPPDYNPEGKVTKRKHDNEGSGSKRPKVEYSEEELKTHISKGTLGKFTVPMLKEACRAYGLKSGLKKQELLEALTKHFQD
T1 sequence (P13010 1-718, chain 2 of 3): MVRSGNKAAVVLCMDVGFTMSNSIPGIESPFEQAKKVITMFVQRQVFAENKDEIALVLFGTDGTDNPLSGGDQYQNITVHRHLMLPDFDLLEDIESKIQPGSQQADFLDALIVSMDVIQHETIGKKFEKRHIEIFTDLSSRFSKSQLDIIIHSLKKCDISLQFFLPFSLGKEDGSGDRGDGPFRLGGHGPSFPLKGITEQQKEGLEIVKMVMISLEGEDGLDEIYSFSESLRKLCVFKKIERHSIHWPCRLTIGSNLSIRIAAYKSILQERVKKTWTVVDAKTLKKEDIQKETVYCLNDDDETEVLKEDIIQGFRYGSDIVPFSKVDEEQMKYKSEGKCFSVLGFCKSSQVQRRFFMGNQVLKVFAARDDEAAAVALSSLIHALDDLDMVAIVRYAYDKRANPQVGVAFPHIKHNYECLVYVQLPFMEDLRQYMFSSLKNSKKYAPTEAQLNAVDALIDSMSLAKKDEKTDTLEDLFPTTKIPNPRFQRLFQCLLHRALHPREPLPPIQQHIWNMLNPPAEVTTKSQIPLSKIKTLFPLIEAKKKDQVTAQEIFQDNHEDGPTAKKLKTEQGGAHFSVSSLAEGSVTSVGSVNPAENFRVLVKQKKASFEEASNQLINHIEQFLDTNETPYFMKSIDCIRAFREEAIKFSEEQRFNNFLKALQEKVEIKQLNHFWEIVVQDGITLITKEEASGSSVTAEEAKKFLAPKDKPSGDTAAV
T1 sequence (Q9H9Q4 whole entry, chain 3 of 3): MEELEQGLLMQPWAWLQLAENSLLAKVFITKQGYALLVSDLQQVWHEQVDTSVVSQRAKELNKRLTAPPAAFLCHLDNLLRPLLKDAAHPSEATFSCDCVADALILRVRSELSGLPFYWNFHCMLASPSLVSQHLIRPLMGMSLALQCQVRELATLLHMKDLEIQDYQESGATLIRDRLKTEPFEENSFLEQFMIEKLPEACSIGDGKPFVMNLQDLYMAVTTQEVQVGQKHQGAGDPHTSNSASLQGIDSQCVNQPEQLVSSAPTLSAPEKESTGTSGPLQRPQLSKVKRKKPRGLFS
T2 sequence (P12956 whole entry, chain 1 of 2): as the sequence (P12956 whole entry, chain 1 of 3) above
T2 sequence (P13010 1-718, chain 2 of 2): as the sequence (P13010 1-718, chain 2 of 3) above
Ku5D, sequence (P12956 whole entry T305D/S306D/T307D/S314D/T316D, chain 1 of 2): as the sequence (P12956 whole entry, chain 1 of 3) above, with T305D, S306D, T307D, S314D, T316D counted along it
Ku5D, sequence (P13010 1-718, chain 2 of 2): as the sequence (P13010 1-718, chain 2 of 3) above
Ku70/Ku80 heterodimer FL (baculovirus);PAXX, sequence (P12956 whole entry, chain 1 of 3): as the sequence (P12956 whole entry, chain 1 of 3) above
Ku70/Ku80 heterodimer FL (baculovirus);PAXX, sequence (P13010 1-718, chain 2 of 3): as the sequence (P13010 1-718, chain 2 of 3) above
Ku70/Ku80 heterodimer FL (baculovirus);PAXX, sequence (Q9BUH6 whole entry, chain 3 of 3): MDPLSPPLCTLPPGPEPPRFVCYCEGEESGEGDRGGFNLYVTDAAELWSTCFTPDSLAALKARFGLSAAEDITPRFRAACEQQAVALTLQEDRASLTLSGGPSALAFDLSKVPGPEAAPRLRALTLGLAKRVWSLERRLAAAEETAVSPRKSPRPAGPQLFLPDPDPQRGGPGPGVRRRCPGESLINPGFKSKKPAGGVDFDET
Ku dCTR, sequence (P12956 whole entry, chain 1 of 2): as the sequence (P12956 whole entry, chain 1 of 3) above
Ku dCTR, sequence (P13010 1-569, chain 2 of 2): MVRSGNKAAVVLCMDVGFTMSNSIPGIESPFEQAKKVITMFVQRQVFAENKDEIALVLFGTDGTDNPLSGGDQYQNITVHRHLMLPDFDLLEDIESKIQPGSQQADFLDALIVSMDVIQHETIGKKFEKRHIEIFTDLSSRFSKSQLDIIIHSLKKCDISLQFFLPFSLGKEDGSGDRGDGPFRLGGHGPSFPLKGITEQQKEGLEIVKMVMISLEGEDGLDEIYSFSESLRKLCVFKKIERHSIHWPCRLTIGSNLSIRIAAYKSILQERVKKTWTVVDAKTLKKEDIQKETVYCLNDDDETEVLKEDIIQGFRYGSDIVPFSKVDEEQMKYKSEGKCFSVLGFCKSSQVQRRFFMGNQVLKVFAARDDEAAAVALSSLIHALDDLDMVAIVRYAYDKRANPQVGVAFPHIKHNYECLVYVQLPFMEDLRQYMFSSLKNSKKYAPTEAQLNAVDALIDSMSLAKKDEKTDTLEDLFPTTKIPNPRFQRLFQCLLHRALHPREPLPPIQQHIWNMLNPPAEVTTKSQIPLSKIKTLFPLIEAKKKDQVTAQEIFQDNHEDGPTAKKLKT

B1: 25bp duplex DNA (dsDNA)
DNA 1: AGCATTGACTGGCATCGTAGCATCC
DNA 2: GGATGCTACGATGCCAGTCAATGCT
binding result [1]: binds | binding result [2]: binds

B2: LINP1 (1-300) (structured_RNA)
RNA: CCCUCCGUCUCCUUGACUCUGGGUGGGCUGUGUGACUUUUCCUUGCUCAAUAGAAUGAGAAGGAGGUGGCGCACCGGCUACAAGGCUAGACCGGGGGCUCGCAUAUCUCCACUUGCAGCUGCCACUGCCAUUAGAAGAACUUGCUCAGCCAGCUCCUGGGCCCCAGGAAAAGGACAAGUGUCACCCAGAACAGAGCCACCUCCAGCUGCACUCAGCUCCAGAAGCUGGCCCAGCCGGUCCAGUACACCUUUUAAAUAAUGUCCUCUACGUGCCGGUGUGGAAGUAGCCCGGAUGCAAUUG
Kd [3]: 1920 ± 330 nM

UGACUUUUCCUUGCUCAAUAGAAUGAGAAGGAGGUGGCG (structured_RNA) [SL2]
Kd (Ku dCTR): 1020 ± 180 nM | Kd ([4]; hairpin with bulge): 900 ± 170 nM | binding result ([5]; hairpin with bulge): binds

CCUGGGGUAGGAGAGGGUAUGGGGACCAGGGCACU (structured_RNA) [LINP1 GQ1]
Kd ([4]; G4): 110 ± 40 nM | binding result ([5]; G4): binds

UGACUGGAGGAAGGAGUAUAGAAACUCUUCCUUUUGGCG (structured_RNA) [SL2-BT]
Kd ([4]; hairpin): 6050 ± 9400 nM

B3: d50 DNA (dsDNA)
DNA 1: CTCTTGGTGATTATGGTTGCAATACATTTAATTTCATTATCAATTAG
DNA 2: CTAATTGATAATGAAATTAAATGTATTGCAACCATAATCACCAAGAG
Kd [6]: 19 ± 19 nM

AAGGCUAGACCGGGGGCUCGCAUUUCUUUUUUUGCAGCUGCCACUGCCA (structured_RNA) [SL3-LM]
Kd ([4]; hairpin): 2370 ± 1040 nM

AAGGCUAGACCGGGGGCUCGCAUAUCUCCACUUGCAGCUGCCACUGCCA (structured_RNA) [SL3]
Kd ([4]; hairpin with bulge): 840 ± 450 nM | binding result ([5]; hairpin with bulge): binds

AACCGUAGACCCCGUCGACCGUUAUCUCCACUACGUCGGGGGACUGGGA (structured_RNA) [SL3-BT]
Kd ([4]; hairpin): 1870 ± 360 nM

UGACUUUUCCUUGCUCAUUUUUUUGAGAAGGAGGUGGCG (structured_RNA) [SL2-LM]
Kd ([4]; hairpin): 1620 ± 470 nM

CCCUCCGUCUCCUUGACUCUGGG (structured_RNA) [SL1]
Kd ([4]; hairpin): 1690 ± 700 nM

UAGGGUUAGGGU (structured_RNA) [TERRA G-quadruplex]
Kd ([4]; G4 (multimeric)): 430 ± 180 nM

B4: Fork substrate (dsDNA)
DNA 1: CGCGCCCAGCTTTCCCAGCTAATAAACTAAAAACTCCTAAGG
DNA 2: CCTTAGGAGTTTTTAGTTTATTGGGCGCG
Kd (Ku5D): ~15000 nM

TTAGGGTTAGGGTTAGGGTTAGGG (structured_DNA) [DNA G-quadruplex]
binding result [7]: no binding
